Results from paper PMC3176765, “Mechanism of the Interaction between the Intrinsically Disordered C-Terminus of the Pro-Apoptotic ARTS Protein and the Bir3 Domain of XIAP” (PLoS ONE, 2011).
Positions of bridges follow the written chain, without caps; N, C: chain ends. Residues, ends and D or L forms follow the SMILES beside them. Chains are numbered I, II in the order given. No end group written: not given here. *: point of attachment. 5FAM = O=C1OC2(c3ccc(O)cc3Oc3cc(O)ccc32)c2ccc(C(=O)*)cc21

What was measured:
[1] = target: T1, Bir3 subunit of the XIAP (residues 252–350) (Homo sapiens, UniProt P98170); assay: Fluorescence spectroscopy binding of dimeric fl-ARTS 266–274 to Bir3 (Hill equation fit); conditions: fluorescence titration with Bir3; 20 mM Hepes pH 7.4, 45 mM NaCl, 10°C; Hill model, apparent averaged Kd; read-out: K d of dimeric peptide, fit to the Hill equation
T1 construct: The pET-21b(+) vector containing XIAP (252–350) Bir3 domain with a C-terminal His Tag; His tag (C); made in house; host or cells: E. coli BL21 Star (DE3)
Description: The importance of Cys273 residue for Bir3 binding raised the question of whether disulfide bond formation is involved in the interaction with Bir3. Addition of a reducing agent weakened the interaction between the ARTS derived peptides and Bir3 (Figure 4A). This raised the possibility that a disulfide bond is formed between two ARTS peptide molecules to form an active dimer. To test this, a covalent dimer of ARTS 266–274 was prepared by forming a disulfide bond between the Cys273 residues of two peptide monomers. MS gave a single peak corresponding the mass of the dimer (data not shown). […] Changes in the chemical shift of the sequentially following His274 and preceding Gln272 were also observed. Binding of Bir3 to the dimeric fl-ARTS 266–274 was studied using fluorescence spectroscopy (Fig. 6C). […]
Measurements were performed at 10°C by using a PerkinElmer LS-50b luminescence spectrofluorimeter equipped with a Hamilton microlabM dispenser as described in [44]. The fluorescently labeled peptide concentrations were determined by using a UV spectrophotometer (Shimadzu, Kyoto, Japan). […] Additions of 5 µl were titrated at 90 sec intervals, the solution was stirred for 15 sec, and the fluorescence and anisotropy were measured after each addition by using an excitation wavelength of 480 nm and an emission wavelength of 530 nm. […]

[2] = target: Dimer fl-ARTS 266-274 (human); assay: other fluorescence titration; Bir3 titrated into dimeric fl-ARTS 266-274; fluorescence fit to the Hill equation; apparent averaged Kd; 20 mM Hepes pH 7.4, 45 mM NaCl, 10°C
[3] = target: T1, Bir3 subunit of the XIAP (residues 252–350); assay: Fluorescence anisotropy binding of fluorescein-labeled ARTS peptides to Bir3 (1:1 binding model); conditions: Bir3 titrated into fluorescein-labeled peptide, 20 mM Hepes pH 7.4, 45 mM NaCl, 10°C, no reducing agent, fit to 1:1 binding model, nb = no binding detected
Description: Fluorescence anisotropy was used to characterize the interaction between ARTS CTD and the Bir3 subunit of XIAP. ARTS CTD (residues 248–274) was synthesized using standard Fmoc chemistry and labeled with fluorescein at its N-terminus. The Bir3 subunit of the XIAP (residues 252–350) was expressed with a His-tag at the C-terminus and purified (see materials and methods and Figure S1). The binding experiments were done in 20 mM Hepes buffer, pH 7.4, 45 mM NaCl, at 10°C. Bir3 was titrated into fl-ARTS CTD and the data were fit to 1∶1 binding model resulting in K d = 8.0±0.7 µM (Figure 4A).
The pET-21b(+) vector containing XIAP (252–350) Bir3 domain with a C-terminal His Tag was transformed into E. coli strain BL21 Star^+ (DE3) (Novagen). Cells were grown at 37°C in LB medium to an optical density (600 nm) of ∼0.6 and induced with 0.4 mM isopropyl-β-D-1-thiogalactoside (IPTG). Cells were harvested after 8 h of incubation at 37°C and were lysed by Microfluidizer (Microfluidics). The protein was purified on HiTrap nickel-Sepharose FF column (100×10 mm, GE Healthcare), using an FPLC system (ÁKTA explorer, Amersham Biosciences). The eluted protein was further purified by filtration on a Sephacryl S100 column (950×26 mm; Amersham Biosciences). The protein was stored in 20 mM Hepes pH 7.4, 50 mM NaCl, 10 mM βME, 0.02% sodium azide and was dialyzed before experimental use.
Measurements were performed at 10°C by using a PerkinElmer LS-50b luminescence spectrofluorimeter equipped with a Hamilton microlabM dispenser as described in [44]. The fluorescently labeled peptide concentrations were determined by using a UV spectrophotometer (Shimadzu, Kyoto, Japan). The fluorescein-labeled ARTS derived peptides were dissolved in 20 mM Hepes buffer, pH 7.4 and 45 mM NaCl. 1 ml of the labeled peptide solution was placed in a cuvette, and the non-labeled Bir3 (200 µl, 150 µM) was placed in the dispenser. Additions of 5 µl were titrated at 90 sec intervals, the solution was stirred for 15 sec, and the fluorescence and anisotropy were measured after each addition by using an excitation wavelength of 480 nm and an emission wavelength of 530 nm. Dissociation constants (K d) were calculated by fitting the fluorescence titration curves (corrected for dilution) or fluorescence anisotropy curves to 1∶1 binding model using KALEIDAGRAPH (Synergy Software, Reading, PA). The following equation was used for the single-site model of the fluorescence results: [drawing 1] Where, F0 is the initial fluorescence, ΔF is the amplitude of the fluorescence change from unbound and bound states, K d is the dissociation constant and [Bir3] is the added concentration of Bir3 domain. A similar equation was used to fit the anisotropy results by replacing the fluorescence (F) with anisotropy (R) changes.

[4] = target: T2, Bir3 domain of XIAP (residues 252-350) with a C-terminal His tag (UniProt P98170 252-350); assay: fluorescence polarisation; non-labeled Bir3 (200 µl, 150 µM) titrated in 5 µl additions into 1 ml of fluorescein-labeled peptide; 20 mM Hepes pH 7.4, 45 mM NaCl, 10°C; fit to 1:1 binding model; conditions: both partners purified
T2 construct: Stored with 10 mM beta-mercaptoethanol and dialysed before experimental use; also called Bir3 subunit of XIAP; XIAP (252-350); source: E. coli BL21 Star (DE3), purified (nickel-Sepharose, Sephacryl S100 gel filtration)

[5] = target: T2, Bir3 domain of XIAP (residues 252-350) …; assay: NMR titration; TOCSY spectra of free and Bir3-bound ARTS CTD compared; peptide 0.5-1.5 mM, 20 mM deuterated Hepes, 45 mM potassium chloride, pH 6.8, 12°C; conditions: both partners purified
[6] = target: the molecule itself; assay: SEC; analytical gel filtration of ARTS CTD 248-274 (1-2 mM) without DTT; 20 mM Hepes pH 7.4, 50 mM NaCl, 4°C; peaks identified by mass spectrometry; monomer to dimer
[7] = target: T2, Bir3 domain of XIAP (residues 252-350) …; assay: fluorescence polarisation; non-labeled Bir3 (200 µl, 150 µM) titrated in 5 µl additions into 1 ml of fluorescein-labeled peptide; 20 mM Hepes pH 7.4, 45 mM NaCl, 10°C; fit to 1:1 binding model; conditions: both partners purified; remark: listed apart in the source

T2 sequence (P98170 252-350): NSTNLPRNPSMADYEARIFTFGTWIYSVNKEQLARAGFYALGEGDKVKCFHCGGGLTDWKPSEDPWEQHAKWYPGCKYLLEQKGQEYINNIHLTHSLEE
T1 sequence (P98170 252-350): as above

**Q.** How did the Kd [1] turn out when NC(=O)CC[C@H](NC(=O)CNC(=O)[C@H](CCC(N)=O)NC(=O)[C@H](Cc1c[nH]cn1)NC(=O)[C@H](CCC(=O)O)NC(=O)[C@H](CCC(N)=O)NC(=O)c1ccc2c(c1)C(=O)OC21c2ccc(O)cc2Oc2cc(O)ccc21)C(=O)NCC(=O)N[C@@H](CSSC[C@H](NC(=O)CNC(=O)[C@H](CCC(N)=O)NC(=O)CNC(=O)[C@H](CCC(N)=O)NC(=O)[C@H](Cc1c[nH]cn1)NC(=O)[C@H](CCC(=O)O)NC(=O)[C@H](CCC(N)=O)NC(=O)c1ccc2c(c1)C(=O)OC21c2ccc(O)cc2Oc2cc(O)ccc21)C(=O)N[C@@H](Cc1c[nH]cn1)C(=O)O)C(=O)N[C@@H](Cc1c[nH]cn1)C(=O)O [Dimer fl-ARTS 266–274] (I: 5FAM-QEHQGQGCH-OH / II: 5FAM-QEHQGQGCH-OH; disulfide I:8-II:8) was run?
**A.** The Kd was 2400 ± 100 nM.

**Q.** “Bir3 domain of XIAP (residues 252-350) with a C-terminal His tag (from UniProt P98170 252-350) (domain or fragment)” was tested. Which Kd [2] did it give?
**A.** Its Kd is 2400 nM.

**Q.** “PPGAVKGTG [fl-ARTS 257–265, fluorescein-labeled peptide of ARTS residues 257–265]” was tested. Which “K d (µM), binding affinity to Bir3” value [3] did it give?
**A.** The value was “nb”.

**Q.** And the “K d (µM), binding affinity to Bir3” value ([3]; listed as ARTS 257–265)?
**A.** The value was “did not”.

**Q.** “QEAQGQGCH [fl-ARTS 266–274 H268A, alanine-scan analogue of fl-ARTS 266–274]” was tested. Which “K d (µM), binding affinity to Bir3” value [3] did it give?
**A.** The value was “nb”.

**Q.** What about the “K d (µM), binding affinity to Bir3” value ([3]; listed as ARTS 266–274 H268A) of the same molecule?
**A.** Its value is “did not bind”.

**Q.** What does the source list for “QEHQGQGAH [fl-ARTS 266–274 C273A, alanine-scan analogue of fl-ARTS 266–274]”?
**A.** K d (µM), binding affinity to Bir3 [3]: nb; K d (µM), binding affinity to Bir3 ([3]; listed as Cys273A): did not bind

**Q.** How did the “K d (µM), binding affinity to Bir3” value [3] turn out when “YGPSLRLLA [fl-ARTS 248–256, fluorescein-labeled peptide of ARTS residues 248–256]” was run?
**A.** The value was “nb”.

**Q.** What about the “K d (µM), binding affinity to Bir3” value ([3]; listed as ARTS 248–256) of the same molecule?
**A.** The value was “did not”.

B1: fl-ARTS 248-274 (peptide)
peptide: {5(6)‑carboxyfluorescein}-YGPSLRLLAPPGAVKGTGQEHQGQGCH
notes: numbers count on: ARTS/Sept4_i2 (GenBank AAG45673.1); also called fl-ARTS CTD; fluorescein-labeled ARTS CTD 248-274; source: synthetic peptide
**Q.** With B1 as the molecule, how does the Kd [4] read?
**A.** The Kd was 8000 ± 700 nM.

B2: fl-ARTS 266-274 H274A (peptide)
peptide: {5'/6'‑carboxyfluorescein}-QEHQGQGCA
notes: numbers count on: ARTS/Sept4_i2 (GenBank AAG45673.1); source: synthetic peptide
**Q.** Which Kd [4] does the source give for B2 here?
**A.** Its Kd is 800 ± 300 nM.

B3: ARTS CTD 248-274 (not labelled) (peptide)
peptide: YGPSLRLLAPPGAVKGTGQEHQGQGCH
notes: numbers count on: ARTS/Sept4_i2 (GenBank AAG45673.1); also called ARTS C-terminal domain; source: synthetic peptide
**Q.** What does the source list for B3?
**A.** binding result [5]: binds; stoichiometry N [6]: 2

B4: fl-ARTS 266-274 (peptide)
peptide: {5'/6'‑carboxyfluorescein}-QEHQGQGCH
notes: numbers count on: ARTS/Sept4_i2 (GenBank AAG45673.1); also called ARTS 266-274 monomer; source: synthetic peptide
**Q.** How did the Kd [7] turn out when B4 was run?
**A.** Its Kd is 2900 ± 300 nM.

**Q.** And the Kd [4]?
**A.** The Kd was 2500 ± 300 nM.

B5: fl-ARTS 266-274 Q266A (peptide)
peptide: {5'/6'‑carboxyfluorescein}-AEHQGQGCH
notes: as for B2
**Q.** For B5, which Kd [4] is on record?
**A.** Its Kd is 900 ± 100 nM.

B6: fl-ARTS 266-274 E267A (peptide)
peptide: {5'/6'‑carboxyfluorescein}-QAHQGQGCH
notes: as for B2
**Q.** For B6, which Kd [4] is on record?
**A.** The Kd was 3600 ± 800 nM.

B7: fl-ARTS 266-274 Q269A (peptide)
peptide: {5'/6'‑carboxyfluorescein}-QEHAGQGCH
notes: as for B2
**Q.** B7 was tested. Which Kd [4] did it give?
**A.** The Kd was 1000 ± 300 nM.

B8: fl-ARTS 266-274 Q271A (peptide)
peptide: {5'/6'‑carboxyfluorescein}-QEHQGAGCH
notes: as for B2
**Q.** B8 was tested. Which Kd [4] did it give?
**A.** The Kd was 1300 ± 200 nM.
